Laboratory results reported in paper PMC9482650, “Quantitative fragmentomics allow affinity mapping of interactomes” (Nature Communications, 2022).

T1: GRIP1_2, Q9Y3R0
T1 sequence (Q9Y3R0 145-248, limits assumed, looked up): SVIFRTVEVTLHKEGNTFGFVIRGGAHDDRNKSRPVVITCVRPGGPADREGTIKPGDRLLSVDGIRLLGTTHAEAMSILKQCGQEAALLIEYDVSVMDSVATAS

T2: NHERF3_3, Q5T2W1
T2 sequence (Q5T2W1 238-333, limits assumed, looked up): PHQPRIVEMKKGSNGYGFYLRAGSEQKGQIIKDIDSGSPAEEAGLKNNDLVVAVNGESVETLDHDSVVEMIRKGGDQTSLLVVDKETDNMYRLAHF

T3: CARD11, Q9BXL7
T3 sequence (Q9BXL7 662-765, limits assumed, looked up): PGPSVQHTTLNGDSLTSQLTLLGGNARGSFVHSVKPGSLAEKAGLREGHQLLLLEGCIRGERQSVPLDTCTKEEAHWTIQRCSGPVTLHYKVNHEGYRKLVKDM

T4: PDZD2_2, O15018
T4 sequence (O15018 329-429, limits assumed, looked up): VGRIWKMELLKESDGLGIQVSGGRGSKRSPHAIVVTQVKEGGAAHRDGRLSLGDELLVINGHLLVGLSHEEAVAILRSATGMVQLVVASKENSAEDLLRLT

T5: SNTA1, Q13424
T5 sequence (Q13424 82-180, limits assumed, looked up): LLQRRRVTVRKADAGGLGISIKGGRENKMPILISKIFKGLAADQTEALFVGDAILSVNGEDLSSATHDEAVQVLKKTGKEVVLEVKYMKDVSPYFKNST

T6: NHERF3_4, Q5T2W1
T6 sequence (Q5T2W1 373-468, limits assumed, looked up): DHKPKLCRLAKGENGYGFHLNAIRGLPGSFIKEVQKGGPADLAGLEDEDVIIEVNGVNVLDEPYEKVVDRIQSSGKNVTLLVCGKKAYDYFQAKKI

T7: HTRA4, P83105
T7 sequence (P83105 378-476, limits assumed, looked up): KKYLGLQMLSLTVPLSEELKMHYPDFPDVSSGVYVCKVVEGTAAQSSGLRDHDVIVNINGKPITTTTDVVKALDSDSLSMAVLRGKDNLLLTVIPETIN

T8: SIPA1L2, Q9P2F8
T8 sequence (Q9P2F8 945-1036, limits assumed, looked up): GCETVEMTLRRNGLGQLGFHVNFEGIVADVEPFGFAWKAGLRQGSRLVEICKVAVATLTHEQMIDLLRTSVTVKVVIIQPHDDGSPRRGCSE

T9: TJP3_3, O95049
T9 sequence (O95049 375-456, limits assumed, looked up): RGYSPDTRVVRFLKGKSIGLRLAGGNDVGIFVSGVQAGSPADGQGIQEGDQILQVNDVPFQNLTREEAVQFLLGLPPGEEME

T10: SNTG1, Q9NSN8
T10 sequence (Q9NSN8 52-150, limits assumed, looked up): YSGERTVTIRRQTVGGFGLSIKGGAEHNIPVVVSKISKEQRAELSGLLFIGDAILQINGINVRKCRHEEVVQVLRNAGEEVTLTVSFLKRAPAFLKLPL

B1: GRK6, P43250 (peptide)
chain: DSEEELPTRL

What follows are binders tested against MAST1, Q9Y2H9 (assay: holdup assay). Conditions: plain residues with an end cap or a label only (N-terminal biotin on a linker: ado-ado).
Sequence of MAST1, Q9Y2H9 (Q9Y2H9 962-1065): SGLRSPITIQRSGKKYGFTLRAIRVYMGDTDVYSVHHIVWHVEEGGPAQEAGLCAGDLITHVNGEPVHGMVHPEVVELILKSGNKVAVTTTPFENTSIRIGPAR
Parameters: key: below the threshold = too weak to quantify, mostly under pKd 3.1 to 4

**Q.** With B1 as the binder, how does the pKd read?
**A.** The pKd was 4.19.

The binders below were run against SCRIB_2, Q14160 (assay: holdup assay). Conditions: plain residues with an end cap or a label only (N-terminal biotin on a linker: ado-ado).
Sequence of SCRIB_2, Q14160 (Q14160 857-960): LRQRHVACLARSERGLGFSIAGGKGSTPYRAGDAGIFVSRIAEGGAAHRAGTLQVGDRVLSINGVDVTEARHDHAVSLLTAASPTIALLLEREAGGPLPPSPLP
Parameters: key: below the threshold = too weak to quantify, mostly under pKd 3.1 to 4

**Q.** Which pKd does the source give for B1 here?
**A.** Its pKd is “below the threshold”.

The binders below were run against GRIP2_3, Q9C0E4 (assay: holdup assay). Conditions: plain residues with an end cap or a label only (N-terminal biotin on a linker: ado-ado).
Sequence of GRIP2_3, Q9C0E4 (Q9C0E4 238-339): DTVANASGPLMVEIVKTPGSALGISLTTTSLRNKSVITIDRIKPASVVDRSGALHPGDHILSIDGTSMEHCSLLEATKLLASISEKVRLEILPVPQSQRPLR
Parameters: key: below the threshold = too weak to quantify, mostly under pKd 3.1 to 4

**Q.** B1 was tested. Which pKd did it give?
**A.** Its pKd is “below the threshold”.

These binders were tested against GOPC, Q9HD26 (assay: holdup assay). Conditions: plain residues with an end cap or a label only (N-terminal biotin on a linker: ado-ado).
Parameters: key: below the threshold = too weak to quantify, mostly under pKd 3.1 to 4

**Q.** How did the pKd turn out when B1 was run?
**A.** Its pKd is 3.83.

Each binder was assayed against DLG2_2, Q15700 (assay: holdup assay). Conditions: plain residues with an end cap or a label only (N-terminal biotin on a linker: ado-ado).
Sequence of DLG2_2, Q15700 (Q15700 189-283): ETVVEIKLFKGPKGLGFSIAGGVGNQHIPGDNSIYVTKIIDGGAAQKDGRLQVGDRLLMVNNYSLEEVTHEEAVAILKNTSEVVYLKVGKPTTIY
Parameters: key: below the threshold = too weak to quantify, mostly under pKd 3.1 to 4

**Q.** B1 was tested. Which pKd did it give?
**A.** Its pKd is “below the threshold”.

The binders below were run against LDB3, O75112 (assay: holdup assay). Conditions: plain residues with an end cap or a label only (N-terminal biotin on a linker: ado-ado).
Sequence of LDB3, O75112 (O75112 1-94): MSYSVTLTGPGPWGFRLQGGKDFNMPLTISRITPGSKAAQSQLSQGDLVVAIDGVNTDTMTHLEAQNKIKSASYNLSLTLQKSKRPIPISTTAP
Parameters: key: below the threshold = too weak to quantify, mostly under pKd 3.1 to 4

**Q.** With B1 as the binder, how does the pKd read?
**A.** The pKd was “below the threshold”.

Each binder was assayed against T1, GRIP1_2, Q9Y3R0 (assay: holdup assay). Conditions: plain residues with an end cap or a label only (N-terminal biotin on a linker: ado-ado).
Parameters: key: below the threshold = too weak to quantify, mostly under pKd 3.1 to 4

**Q.** For B1, which pKd is on record?
**A.** Its pKd is “below the threshold”.

These binders were tested against PICK1, Q9NRD5 (assay: holdup assay). Conditions: plain residues with an end cap or a label only (N-terminal biotin on a linker: ado-ado).
Sequence of PICK1, Q9NRD5 (Q9NRD5 17-115): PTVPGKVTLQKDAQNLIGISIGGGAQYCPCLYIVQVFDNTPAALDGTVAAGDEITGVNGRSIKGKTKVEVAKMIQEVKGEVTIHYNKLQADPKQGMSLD
Parameters: key: below the threshold = too weak to quantify, mostly under pKd 3.1 to 4

**Q.** Which pKd does the source give for B1 here?
**A.** Its pKd is 4.25.

The binders below were run against T2, NHERF3_3, Q5T2W1 (assay: holdup assay). Conditions: plain residues with an end cap or a label only (N-terminal biotin on a linker: ado-ado).
Parameters: key: below the threshold = too weak to quantify, mostly under pKd 3.1 to 4

**Q.** Which pKd does the source give for B1 here?
**A.** Its pKd is 3.7.

The binders below were run against PTPN3, P26045 (assay: holdup assay). Conditions: plain residues with an end cap or a label only (N-terminal biotin on a linker: ado-ado).
Sequence of PTPN3, P26045 (P26045 505-587): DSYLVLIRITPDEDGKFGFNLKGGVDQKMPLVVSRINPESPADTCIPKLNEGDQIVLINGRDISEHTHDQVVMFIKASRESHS
Parameters: key: below the threshold = too weak to quantify, mostly under pKd 3.1 to 4

**Q.** With B1 as the binder, how does the pKd read?
**A.** Its pKd is 3.77.

Each binder was assayed against NHERF4_2, Q86UT5 (assay: holdup assay). Conditions: plain residues with an end cap or a label only (N-terminal biotin on a linker: ado-ado).
Sequence of NHERF4_2, Q86UT5 (Q86UT5 220-308): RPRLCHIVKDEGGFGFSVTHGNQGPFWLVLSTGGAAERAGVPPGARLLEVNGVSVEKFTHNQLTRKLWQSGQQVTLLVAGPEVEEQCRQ
Parameters: key: below the threshold = too weak to quantify, mostly under pKd 3.1 to 4

**Q.** For B1, which pKd is on record?
**A.** The pKd was “below the threshold”.

The binders below were run against T3, CARD11, Q9BXL7 (assay: holdup assay). Conditions: plain residues with an end cap or a label only (N-terminal biotin on a linker: ado-ado).
Parameters: key: below the threshold = too weak to quantify, mostly under pKd 3.1 to 4

**Q.** Which pKd does the source give for B1 here?
**A.** Its pKd is “below the threshold”.

Each binder was assayed against T4, PDZD2_2, O15018 (assay: holdup assay). Conditions: plain residues with an end cap or a label only (N-terminal biotin on a linker: ado-ado).
Parameters: key: below the threshold = too weak to quantify, mostly under pKd 3.1 to 4

**Q.** Which pKd does the source give for B1 here?
**A.** The pKd was 3.71.

Each binder was assayed against T5, SNTA1, Q13424 (assay: holdup assay). Conditions: plain residues with an end cap or a label only (N-terminal biotin on a linker: ado-ado).
Parameters: key: below the threshold = too weak to quantify, mostly under pKd 3.1 to 4

**Q.** B1 was tested. Which pKd did it give?
**A.** The pKd was “below the threshold”.

These binders were tested against FRMPD2_1, Q68DX3 (assay: holdup assay). Conditions: plain residues with an end cap or a label only (N-terminal biotin on a linker: ado-ado).
Sequence of FRMPD2_1, Q68DX3 (Q68DX3 770-861): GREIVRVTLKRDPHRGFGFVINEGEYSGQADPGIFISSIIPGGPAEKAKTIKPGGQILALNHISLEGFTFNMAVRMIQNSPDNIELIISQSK
Parameters: key: below the threshold = too weak to quantify, mostly under pKd 3.1 to 4

**Q.** Which pKd does the source give for B1 here?
**A.** Its pKd is “below the threshold”.

What follows are binders tested against Inadl_6, Q8NI35 (assay: holdup assay). Conditions: plain residues with an end cap or a label only (N-terminal biotin on a linker: ado-ado).
Sequence of Inadl_6, Q8NI35 (Q8NI35 1058-1167): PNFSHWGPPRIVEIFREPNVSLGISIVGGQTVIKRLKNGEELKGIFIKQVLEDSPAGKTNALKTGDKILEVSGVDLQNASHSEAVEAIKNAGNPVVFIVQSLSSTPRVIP
Parameters: key: below the threshold = too weak to quantify, mostly under pKd 3.1 to 4

**Q.** B1 was tested. Which pKd did it give?
**A.** The pKd was “below the threshold”.

Each binder was assayed against MAGI2_4, Q86UL8 (assay: holdup assay). Conditions: plain residues with an end cap or a label only (N-terminal biotin on a linker: ado-ado).
Sequence of MAGI2_4, Q86UL8 (Q86UL8 772-865): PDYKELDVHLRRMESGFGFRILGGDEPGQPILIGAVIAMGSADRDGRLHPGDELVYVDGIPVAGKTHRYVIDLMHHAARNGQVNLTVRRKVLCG
Parameters: key: below the threshold = too weak to quantify, mostly under pKd 3.1 to 4

**Q.** How did the pKd turn out when B1 was run?
**A.** The pKd was 3.47.

The binders below were run against MAGI2_3, Q86UL8 (assay: holdup assay). Conditions: plain residues with an end cap or a label only (N-terminal biotin on a linker: ado-ado).
Sequence of MAGI2_3, Q86UL8 (Q86UL8 600-682): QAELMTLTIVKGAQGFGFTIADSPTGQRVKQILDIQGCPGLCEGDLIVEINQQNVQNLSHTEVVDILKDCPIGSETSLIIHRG
Parameters: key: below the threshold = too weak to quantify, mostly under pKd 3.1 to 4

**Q.** With B1 as the binder, how does the pKd read?
**A.** Its pKd is “below the threshold”.

Each binder was assayed against T6, NHERF3_4, Q5T2W1 (assay: holdup assay). Conditions: plain residues with an end cap or a label only (N-terminal biotin on a linker: ado-ado).
Parameters: key: below the threshold = too weak to quantify, mostly under pKd 3.1 to 4

**Q.** Which pKd does the source give for B1 here?
**A.** The pKd was 3.79.

The binders below were run against MAGI2_5, Q86UL8 (assay: holdup assay). Conditions: plain residues with an end cap or a label only (N-terminal biotin on a linker: ado-ado).
Sequence of MAGI2_5, Q86UL8 (Q86UL8 915-1017): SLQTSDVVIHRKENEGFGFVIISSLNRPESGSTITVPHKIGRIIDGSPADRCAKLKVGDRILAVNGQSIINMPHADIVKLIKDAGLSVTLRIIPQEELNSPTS
Parameters: key: below the threshold = too weak to quantify, mostly under pKd 3.1 to 4

**Q.** Which pKd does the source give for B1 here?
**A.** The pKd was “below the threshold”.

The binders below were run against HTRA1, Q92743 (assay: holdup assay). Conditions: plain residues with an end cap or a label only (N-terminal biotin on a linker: ado-ado).
Sequence of HTRA1, Q92743 (Q92743 360-477): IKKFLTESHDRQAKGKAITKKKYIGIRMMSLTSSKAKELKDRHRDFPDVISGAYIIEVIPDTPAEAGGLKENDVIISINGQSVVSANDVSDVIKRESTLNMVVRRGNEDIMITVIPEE
Parameters: key: below the threshold = too weak to quantify, mostly under pKd 3.1 to 4

**Q.** With B1 as the binder, how does the pKd read?
**A.** The pKd was 4.18.

Each binder was assayed against Inadl_5, Q8NI35 (assay: holdup assay). Conditions: plain residues with an end cap or a label only (N-terminal biotin on a linker: ado-ado).
Sequence of Inadl_5, Q8NI35 (Q8NI35 673-780): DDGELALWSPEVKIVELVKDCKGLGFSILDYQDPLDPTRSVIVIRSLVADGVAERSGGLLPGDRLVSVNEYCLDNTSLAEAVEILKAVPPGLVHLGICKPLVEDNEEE
Parameters: key: below the threshold = too weak to quantify, mostly under pKd 3.1 to 4

**Q.** B1 was tested. Which pKd did it give?
**A.** Its pKd is “below the threshold”.

What follows are binders tested against LNX1_3, Q8TBB1 (assay: holdup assay). Conditions: plain residues with an end cap or a label only (N-terminal biotin on a linker: ado-ado).
Sequence of LNX1_3, Q8TBB1 (Q8TBB1 500-596): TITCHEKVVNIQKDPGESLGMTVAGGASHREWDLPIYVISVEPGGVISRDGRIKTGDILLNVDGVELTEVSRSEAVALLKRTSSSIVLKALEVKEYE
Parameters: key: below the threshold = too weak to quantify, mostly under pKd 3.1 to 4

**Q.** How did the pKd turn out when B1 was run?
**A.** The pKd was “below the threshold”.

Each binder was assayed against T7, HTRA4, P83105 (assay: holdup assay). Conditions: plain residues with an end cap or a label only (N-terminal biotin on a linker: ado-ado).
Parameters: key: below the threshold = too weak to quantify, mostly under pKd 3.1 to 4

**Q.** How did the pKd turn out when B1 was run?
**A.** Its pKd is 3.92.

Each binder was assayed against GRIP2_4, Q9C0E4 (assay: holdup assay). Conditions: plain residues with an end cap or a label only (N-terminal biotin on a linker: ado-ado).
Sequence of GRIP2_4, Q9C0E4 (Q9C0E4 446-548): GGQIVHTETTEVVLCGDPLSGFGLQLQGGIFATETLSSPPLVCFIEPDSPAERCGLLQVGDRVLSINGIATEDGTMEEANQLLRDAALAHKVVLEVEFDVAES
Parameters: key: below the threshold = too weak to quantify, mostly under pKd 3.1 to 4

**Q.** With B1 as the binder, how does the pKd read?
**A.** The pKd was “below the threshold”.

Each binder was assayed against T8, SIPA1L2, Q9P2F8 (assay: holdup assay). Conditions: plain residues with an end cap or a label only (N-terminal biotin on a linker: ado-ado).
Parameters: key: below the threshold = too weak to quantify, mostly under pKd 3.1 to 4

**Q.** For B1, which pKd is on record?
**A.** Its pKd is “below the threshold”.

What follows are binders tested against T9, TJP3_3, O95049 (assay: holdup assay). Conditions: plain residues with an end cap or a label only (N-terminal biotin on a linker: ado-ado).
Parameters: key: below the threshold = too weak to quantify, mostly under pKd 3.1 to 4

**Q.** How did the pKd turn out when B1 was run?
**A.** Its pKd is “below the threshold”.

The binders below were run against T10, SNTG1, Q9NSN8 (assay: holdup assay). Conditions: plain residues with an end cap or a label only (N-terminal biotin on a linker: ado-ado).
Parameters: key: below the threshold = too weak to quantify, mostly under pKd 3.1 to 4

**Q.** Which pKd does the source give for B1 here?
**A.** Its pKd is “below the threshold”.

These binders were tested against CASK, O14936 (assay: holdup assay). Conditions: plain residues with an end cap or a label only (N-terminal biotin on a linker: ado-ado).
Sequence of CASK, O14936 (O14936 487-570): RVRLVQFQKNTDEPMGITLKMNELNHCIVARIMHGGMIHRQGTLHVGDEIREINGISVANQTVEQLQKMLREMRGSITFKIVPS
Parameters: key: below the threshold = too weak to quantify, mostly under pKd 3.1 to 4

**Q.** Which pKd does the source give for B1 here?
**A.** Its pKd is “below the threshold”.
